Data published in paper PMC10696041 (2023).

B1: MBP-CUB1CUB2 domains of PCPE-2, WT [human] / bone morphogenetic protein-1 [human] (parent complex)
chain 1: QSPERPVFTCGGILTGESGFIGSEGFPGVYPPNSKCTWKITVPEGKVVVLNFRFIDLESDNLCRYDFVDVYNGHANGQRIGRFCGTFRPGALVSSGNKMMVQMISDANTAGNGFMAMFSAAEPNERGDQYCGGLLDRPSGSFKTPNWPDRDYPAGVTCVWHIVAPKNQLIELKFEKFDVERDNYCRYDYVAVFNGGEVNDARRIGKYCGDSPPAPIVSERNELLIQFLSDLSLTADGFIGHYIFRPK
chain 2: AATSRPERVWPDGVIPFVIGGNFTGSQRAVFRQAMRHWEKHTCVTFLERTDEDSYIVFTYRPCGCCSYVGRRGGGPQAISIGKNCDKFGIVVHELGHVVGFWHEHTRPDRDRHVSIVRENIQPGQEYNFLKMEPQEVESLGETYDFDSIMHYARNTFSRGIFLDTIVPKYEVNGVKPPIGQRTRLSKGDIAQARKLYKCPACGETLQDSTGNFSSPEYPNGYSAHMHCVWRISVTPGEKIILNFTSLDLYRSRLCWYDYVEVRDGFWRKAPLRGRFCGSKLPEPIVSTDSRLWVEFRSSSNWVGKGFFAVYEAICGGDVKKDYGHIQSPNYPDDYRPSKVCIWRIQVSEGFHVGLTFQSFEIERHDSCAYDYLEVRDGHSESSTLIGRYCGYEKPDDIKSTSSRLWLKFVSDGSINKAGFAVNFFKEVDECSRPNRGGCEQRCLNTLGSYKCSCDPGYELAPDKRRCEAACGGFLTKLNGSITSPGWPKEYPPNKNCIWQLVAPTQYRISLQFDFFETEGNDVCKYDFVEVRSGLTADSKLHGKFCGSEKPEVITSQYNNMRVEFKSDNTVSKKGFKAHFFSEKRPALQPPRGRPHQLKFRVQKRNRTPQ

Variants of: B1
Experiment: SPR; 50 nM MBP-CUB1CUB2; immobilized BMP-1 (1302 and 1492 RU); parent: 100; read off a plot

percent of parent [% binding / WT] | Variant
~84 | chain 1 QSPERPVFTCGGILTGESGFIGSEGFPGVYPPNSKCTWKITVPEGKVVVLNFRFIDLESDNLCRYDFVDVYNGHANGQRIGRFCGTARPGALVSSGNKMMVQMISDANTAGNGFMAMFSAAEPNERGDQYCGGLLDRPSGSFKTPNWPDRDYPAGVTCVWHIVAPKNQLIELKFEKFDVERDNYCRYDYVAVFNGGEVNDARRIGKYCGDSPPAPIVSERNELLIQFLSDLSLTADGFIGHYIFRPK [chain 1 F87A]
~90 | chain 1 QSPERPVFTCGGILTGESGFIGSEGFPGVYPPNSKCTWKITVPEGKVVVLNFRFIDLESDNLCRYDFVDVYNGHANGQRIGRFCGTFRPGALVSSGNKMMVQMISDANTAGNGFMAMFSAAEPNERGDQYCGGLLDRPSGSFKTPNWPDADYPAGVTCVWHIVAPKNQLIELKFEKFDVERDNYCRYDYVAVFNGGEVNDARRIGKYCGDSPPAPIVSERNELLIQFLSDLSLTADGFIGHYIFRPK [chain 1 R150A]
